# Reference: patent US20130196320A1, “METHOD FOR IMPROVING CLEAVAGE OF DNA BY ENDONUCLEASE SENSITIVE TO METHYLATION” (CELLECTIS, priority 2010, published 2013)
# Legend:
# XPC4.1 DNA target = test: In vitro binding assay, fluorescence anisotropy of fluorescein-labeled XPC4.1 duplex
# Experimental: FIG. 7: Spectrofluorimetric titration of fluorescein-labeled XPC4.1 by XPC4. 50 nM of XPC4.1 duplex was incubated with increasing concentrations of XPC4 (from […]) in binding buffer (10 mM Tris-HCl, 150 mM NaCl, 10 mM CaCl2, 10 mM DTT, pH8) at 25° C. After 30 minutes incubation, the fluorescence anisotropy of the mixture was recorded with a Pherastar Plus (BMG Labtech) operating in fluorescence polarization end point mode with excitation and emission wavelengths set to 495 and 520 nm respectively. Normalized fluorescence anisotropy is plotted as a function of XPC4 concentration. Apparent dissociation constant were determined by fitting raw data by an hyperbolic function (Ax=(A∞*[Meganuclease])/(Kd+[Meganuclease]) with Ax, the fluorescence anisotropy value obtained at a given meganuclease concentration, A∞ the fluorescence anisotropy value obtained at saturating concentration of meganuclease and Kd the dissociation constant of the equilibrium studied).
# Fluorescein labeled C1234 oligonucleotides were synthesized and HPLC-purified by Eurogentec. […] C 1234 duplex and fluorescein final concentrations were assessed by spectrophotometry using their respective extinction coefficients ε260nm=62900 M^−1 cm^−1 and ε495nm=83000 M^−1 cm^−1. […]
# [1] = tested on: XPC4 target locus in 293H cells; test: Meganuclease-induced mutagenesis at XPC4 target locus by deep sequencing, siRNA targeting DNMT1; assay type: cell-based, human; conditions: for mutagenesis, PCR fragments carrying a mutation: XPC4 meganuclease plasmid
# Experimental: The human 293H cells (ATCC) were plated at a density of 1.2×10^6 cells per 10 cm dish in complete medium (DMEM supplemented with 2 mM L-glutamine, penicillin (100 IU/ml), streptomycin (100 μg/ml), amphotericin B (Fongizone: 0.25 μg/ml, Invitrogen-Life Science) and 10% FBS). The next day, cells were transfected with 5 μg of empty vector pCLS003 (SEQ ID NO: 65) and 1 nM or 5 nM of si_DNMT1 composed of mixture of two siRNA DNMT1—1 ([…], SEQ ID NO: 66) and DNMT1—2 ([…], SEQ ID NO: 67) or with si_AS, a siRNA control with no known human target, using Lipofectamine 2000 as transfection reagent (Invitrogen) according to the manufacturer's protocol. The day after, cells were re-platted at the density of 1.2×10^6 cells per 10 cm. 24 hours after, cells were transfected again with 1 nM or 5 nM of siDNMT1 or si_AS in presence of 3 μg of meganuclease expressing vector (pCLS2510; SEQ ID NO: 68) and 2 μg of empty vector or 5 μg of empty vector (SEQ ID NO: 65), with Lipofectamine 2000 transfection reagent (Invitrogen) according to the manufacturer's protocol.
# After genomic DNA extraction, the XPC4 target locus was amplified with specific primers flanked by specific adaptator needed for HTS sequencing on the 454 sequencing system (454 Life Sciences)
# 5,000 to 10,000 sequences per sample were analyzed.
molecule,measurement,setting,value
XPC4: engineered meganuclease (SEQ ID NO: 2) designed to cleave xeroderma pigmentosum group C gene (XPC) (protein) MANTKYNEEFLLYLAGFVDGDGSIIAQIKPNQSHKFKHALQLTFKVTQKTQRRWFLDKLVDEIGVGYVQDSGSVSNYILSEIKPLHNFLTQLQPFLELKQKQANLALKIIEQLPSAKESPDKFLEVCTWVDQVAALNDSKTRKTTSETVRAVLDSLSEKKKSSPAAGGSDKYNQALSKYNQALSKYNQALSGGGGSNKKFLLYLAGFVDSDGSIIAQIKPNQSHKFKHQLSLAFQVTQKTQRRWFLDKLVDRIGVGYVRDRGSVSDYILSKIKPLHNFLTQLQPFLKLKQKQANLVLKIIEQLPSAKESPDKFLEVCTWVDQVAALNDSKTRKTTSETVRAVLDSLSEKKKSSP,Kd,XPC4.1 DNA target; XPC4.1_Me −11a/−10b & +10a/+11b (fully methylated),127 ± 22 nM
same,Kd,XPC4.1 DNA target; unmethylated XPC4.1,108 ± 21 nM
same,"mutagenesis, PCR fragments carrying a mutation",[1]; Si_AS 1 nM (control siRNA),0.3%
same,"mutagenesis, PCR fragments carrying a mutation",[1]; Si_AS 5 nM (control siRNA),0.2%
same,"mutagenesis, PCR fragments carrying a mutation",[1]; Si_DNMT1 1 nM,4.8%
same,"mutagenesis, PCR fragments carrying a mutation",[1]; Si_DNMT1 5 nM,7.6%
same,PCR fragments carrying a mutation,"[1]; XPC4 meganuclease, non relevant siRNA (si_AS)",0.2-0.3%
same,mutations,"[1]; XPC4 meganuclease, samples treated with si_DNMT1",up to 7%
